Results as given in patent US20130236430A1, “PROLIFERATION, SEPARATION AND TRANSPLANTATION OF INHIBITORY NEURON PROGENITORS AND PROLIFERATION PROMOTING SUBSTANCES FOR THE PROGENITORS” (priority 2010, published 2013).

B1: Activin A (protein, UniProt P08476 311-426, looked up)
Inhibin beta A chain: GLECDGKVNICCKKQFFVSFKDIGWNDWIIAPSGYHANYCEGECPSHIAGTSGSSLSFHSTVINHYRMRGHSPFANLKSCCVPTKLRPMSMLYYDDGQNIIKKDIQNMIVEECGCS
modifications: Inhibin beta A chain

Tests used:
[1] = Infusion of peroxidase tracer protein into the cistern magna, distribution visualized by DAB reaction; format: in vivo; settings: infused into cistern magna of mouse, formalin fixing after 30 minutes; FIG. 12
Excerpt: In the case of the microperoxidase being not able to penetrate, a barrier corresponding to the blood brain barrier is judged to be present.
It has already discussed that the most of the inhibitory neuron progenitors were distributed to the proximity to the brain surface or the subventricular zone. In order to establish a technique for delivering Activin A to the proximity to the brain surface or the subventricular zone, a protein which can readily be detected was employed instead of Activin A itself in a monitoring experiment. The protein employed was a microperoxidase which was a peptide obtained by enzymatic degradation of cytochrome C and purification of a heme-containing moiety. A caudal part of a mouse cerebellum has a large subarachnoid cavity referred to as the cistern magna, into which the microperoxidase was infused, and after 30 minutes the formalin fixing was conducted and the enzyme distribution was visualized by a color development via DAB reaction (peroxidase reaction). It is defined that when the microperoxidase cannot permeate then a barrier corresponding to the blood brain barrier exists. […] It means that there was no barrier corresponding to BBB between the subarachnoid cavity and the brain parenchyma (the boundary is the pia matter) or between the ventricle and the brain parenchyma (the boundary is a ventricular zone). […]

[2] = system: inhibitory neuron progenitors (GFP positive cells from GAD67-GFP P0 mouse cerebral cortex); experiment: BrdU uptake into DNA of sorted GFP positive cells cultured in neural stem cell culture medium with or without Activin A; format: cell-based; settings: neural stem cell culture medium with (M+A) or without (M) Activin A at 20 ng/ml; FIG. 10
Protocol: The cerebral cortex of a GAD67-GFP P0 mouse was taken out, treated with a protease (trypsin) to disperse the cells, which were subjected to a cell sorter to obtain GFP positive cells. A neural stem cell culture medium (Neurobasal medium +5% B27 supplement, 20 ng/ml bFGF, 20 ng/ml EGF) was combined with a E18 mouse fetal brain tissue and cultured overnight for conditioning, thereafter the cells were removed and then 5 μg/ml of BrdU was added and the GFP positive cells taken out by the cell sorter were cultured for 2 to 7 days and then fixed. As a result, a part of the GFP positive GABAergic neuron progenitors was confirmed to uptake BrdU in a conditioned neural stem cell culture medium to undergo a cell division (FIG. 9). When the GFP positive cells were cultured in a neural stem cell culture medium which had not been conditioned with the fetal brain tissue, the image as of FIG. 9 was not obtained.
The proliferation may be successful in the neural stem cell culture medium supplemented with essential proliferation factors, thus establishing an essential proliferation factor detection system.

[3] = system: inhibitory neuron progenitors in the brain; experiment: In vivo infusion of Activin A solution into the brain of juvenile GAD67-GFP mouse, EdU labelling, histological observation; settings: P3 GAD67-GFP mouse; 1 μl of 1 μg/ml Activin A solution, one side; EdU i.p. after 30 minutes; examined after 1 week; FIG. 11
Protocol: Thereafter, the animal was maintained for 1 week, anesthetized, fixed, and examined histologically.
Also in order to verify the in vivo effect of Activin A, an Activin A solution was injected directly into the brain of a 3-day old (P3) juvenile mouse. Thirty minutes after this addition, EdU was injected intraperitoneally. […] Then the subsequent issue is a method for delivering Activin A to the inhibitory neuron progenitors inside the brain. Such a method is preferably a method avoiding any damage to the brain, such as penetration of an injection needle.

Molecule | distribution from the cistern via the ventricles to the lateral ventricle and into the brain parenchyma [1] | permeation from the subarachnoid cavity through the pia matter into the brain parenchyma [1] | uptake of BrdU into the DNA (increase in the DNA amount associated with cell division) [2] | EdU positive cells (considered pia progenitors) in the pia matter on the infusion side [3] | number of GFP/EdU double-stained inhibitory neurons in the infused hemisphere compared with the opposite hemisphere [3]
microperoxidase | migrated from the surface of the lateral ventricle to the brain parenchyma | permeated from the pia matter into the brain parenchyma |  |  | 
B1 |  |  | increase in the DNA amount associated with the cell division was evident | a large number | significantly larger number
